pKd: −log10 of the molar value.
Legend:
[1] = biological target: PEbody with N-terminal 6x His tag (human) (UniProt P02751); assay: BLI
[2] = biological target: Single4 monobody displayed on the yeast surface (human) (UniProt P02751); assay: flow cytometry on cells

pKd [1]: 8.24 | fold R-PE binding capability against G9 [2]: 500 fold
Substance: R-Phycoerythrin (complex)

Reference: paper PMC5910193
